# Experimental data published in patent US20120276102A1 (Pfizer, published 2012).
# Substitutions are numbered along the chain they refer to.
# B1: parental 18A5 antibody (antibody, V domains shown)
# VH: QVQLQESGPGLVKTSETLSLTCAVSGYSISSGYYWGWIRQPPGKGLEWIGSISHTGNTYYNPPLKSRVTISVDTSKNQFSLKLSSVTAADTAVYYCARGGGISRPEYWGKGTLVTVSS
# VL: SSELTQDPPVSVALGQTVTLTCQGDSLRTYYASWYQQKSGQAPILLLYGKHKRPSGIPDRFSGSTSGDTASLTITGAQAEDEADYYCNSRDSSGNPHVLFGGGTQLTVL
# notes: also called 18A5 IgG
# B2: AbT (antibody, human IgG1, V domains shown)
# VH: B1 VH with T14P, K110Q
# VL: SSELTQDPAVSVALGQTVRITCQGDSLRTYYASWYQQKPGQAPVLVIYGKHKRPSGIPDRFSGSSSGNTASLTITGAQAEDEADYYCVARSNKGNPHVLFGGGTQLTVL
# notes: CDR3 graft, residue limits derived as for m29; also called VHP/VL9; VHPTM/VL9
# B3: AbR (antibody, human IgG1, V domains shown)
# VH: B1 VH with T14P, G99F, G100M, I102F, S103G, K110Q
# VL: B2 VL with A89T, N92V
# notes: CDR3 graft, residue limits derived as for m29; also called VH3/VL18; VH3DM/VL18
# B4: AbS (antibody, V domains shown)
# VH: B1 VH with T14P, K110Q
# VL: B2 VL with V88M, A89S, N92I, K93W
# notes: CDR3 graft, residue limits derived as for m29; also called VHP/VL6; VHPTM/VL6
# B5: AbQ (antibody, human IgG1, V domains shown)
# VH: B1 VH with T14P, G99F, G100M, I102F, S103G, K110Q
# VL: B2 VL with N92V, K93V
# notes: CDR3 graft, residue limits derived as for m29; also called VH3/VL2; VH3DM/VL2
# B6: AbU (antibody, human IgG1, V domains shown)
# VH: B1 VH with T14P, K110Q
# VL: B2 VL with V88T, A89T
# notes: CDR3 graft, residue limits derived as for m29; also called VHP/VL25; VHPTM/VL25
# B7: AbP (antibody, human IgG1, V domains shown)
# VH: B1 VH with T14P, K110Q
# VL: B2 VL with A89S, N92A
# notes: CDR3 graft, residue limits derived as for m29; also called VHP/VL20; VHPTM/VL20
# B8: AbO (antibody, human IgG1, V domains shown)
# VH: B1 VH with T14P, K110Q
# VL: B2 VL with A89T, N92A
# notes: CDR3 graft, residue limits derived as for m29; also called VHP/VL16; VHPTM/VL16
# Molecular target: T1, human IL-21R expressed on cells (human, UniProt Q9HBE5 20-538)
# T1 sequence (Q9HBE5 20-538 limits assumed): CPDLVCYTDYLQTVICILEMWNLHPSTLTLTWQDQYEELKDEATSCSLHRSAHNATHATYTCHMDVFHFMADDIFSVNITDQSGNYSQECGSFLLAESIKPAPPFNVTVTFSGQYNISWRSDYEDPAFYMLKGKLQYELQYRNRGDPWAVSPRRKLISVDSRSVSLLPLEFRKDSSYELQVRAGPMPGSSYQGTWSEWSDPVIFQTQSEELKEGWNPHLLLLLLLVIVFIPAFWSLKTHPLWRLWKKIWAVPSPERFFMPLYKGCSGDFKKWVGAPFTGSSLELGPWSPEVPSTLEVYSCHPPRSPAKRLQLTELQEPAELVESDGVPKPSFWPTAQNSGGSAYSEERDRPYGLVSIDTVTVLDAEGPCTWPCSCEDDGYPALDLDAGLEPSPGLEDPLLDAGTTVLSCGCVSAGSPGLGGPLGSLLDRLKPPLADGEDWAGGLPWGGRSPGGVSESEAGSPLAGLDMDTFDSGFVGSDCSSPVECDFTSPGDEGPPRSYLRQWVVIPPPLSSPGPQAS
# Assay: cell-based or functional assay
Human IL-21R-BaF3 Neutralization IC50 [nM],Human IL-21R-TF1 Neutralization IC50 [nM],Binder
1.71,14,B1
0.3,2.32,B2
0.56,1.63,B3
0.68,6.67,B4

# Molecular target: T2, murine IL-21R expressed on cells (murine, UniProt Q9JHX3 20-529)
# Assay: cell-based or functional assay
row,Murine IL-21R-BaF3 Neutralization IC50 [nM],Binder
1,177,B1
2,0.05,B2
3,0.34,B3
4,0.04,B4

# Molecular target: T1, human IL-21R expressed on cells
# Assay: cell-based or functional assay
# Remark: another data set of the same source
row,Neutralization of B cell proliferation IC50 [nM],Binder
1,1.86,B1
2,0.14,B2
3,0.22,B3
4,0.44,B4
5,0.16,B5
6,0.13,B6

# Molecular target: T1, human IL-21R expressed on cells
# Assay: cell-based or functional assay
# Remark: another data set of the same source
row,Neutralization of human primary T cell Proliferation IC50 [nM],Binder
1,0.02,B7
2,1.42,B1
3,0.06,B8
4,0.03,B2
5,0.04,B3
6,0.06,B4
7,0.08,B5
8,0.03,B6

# Molecular target: T2, murine IL-21R expressed on cells
# Assay: cell-based or functional assay
# Remark: another data set of the same source
row,Neutralization of murine primary T cell Proliferation IC50 [nM],Binder
1,> 85,B1
2,4.92,B8
3,0.61,B2
4,0.13,B3
5,0.02,B4
6,0.85,B5
7,1.79,B6

# Molecular target: T3, human IL-21R extracellular domain His-Flag fusion protein (human, UniProt Q9HBE5 20-232)
# T3 construct: Biotinylated in the HTRF screen; also called hIL-21R-H/F; human IL-21R-H/F
# T3 sequence (Q9HBE5 20-232): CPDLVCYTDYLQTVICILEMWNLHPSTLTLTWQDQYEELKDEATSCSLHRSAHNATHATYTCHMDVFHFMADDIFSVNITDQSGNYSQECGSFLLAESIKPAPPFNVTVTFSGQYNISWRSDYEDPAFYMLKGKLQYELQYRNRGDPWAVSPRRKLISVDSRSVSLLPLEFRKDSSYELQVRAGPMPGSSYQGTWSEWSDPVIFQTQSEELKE
# Assay: SPR, Ab captured on anti-human IgG
# Procedure: (§1) The kinetics of binding of anti-IL-21R antibodies to human and murine IL-21R-H/F was tested on a BIACORE™ surface plasmon resonance instrument. Anti-human IgG antibodies (Invitrogen Corporation) were immobilized onto a research-grade carboxy-methyl-dextran chip (CM5) using standard amine coupling. The surface was activated with EDC/NHS for 7 min at a flow of 20 μl/min. The first flow cell was used as a reference surface to correct for bulk refractive index, matrix effects, and nonspecific binding. The anti-human-Fc antibody was diluted to 20 μg/ml in 10 mM sodium acetate buffer (pH 5.0), and 2950-3405 resonance units (RU) were captured on each of the four flow cells. Remaining activated groups were blocked with 1.0 M ethanolamine-HCl (pH 8.5).
# (§2) Anti-IL-21R antibodies were diluted to 0.1-0.2 μg/ml in HBS/EP buffer supplemented with 0.2% bovine serum albumin and loaded onto the BIACORE™ chip. Following a brief washing period, solutions of 0-100 nM human IL-21R-H/F or 10-500 nM murine IL-21R-H/F were injected over the chip at a flow rate of 50 μl/min. The association phase was run for 3 min for human and murine IL-21R kinetics, and the dissociation phase was monitored for 15 min for hIL-21R and for 5 min for mIL-21R, followed by two 10 μl injections and one 30 μl injection of glycine (pH 1.5), to regenerate a fully active capturing surface. All binding experiments were done at 25° C. in HBS/EP buffer, and the sample rack was kept at 15° C. Blank and buffer effects were subtracted for each sensorgram using double referencing.
Kd [nM],koff [s⁻¹],kon [M⁻¹ s⁻¹],Binder
0.615,0.000119,194000,B7
4.43,0.00108,243000,B1
0.475,0.000114,241000,B8
0.379,6.78e-05,179000,B2
0.567,9.61e-05,170000,B3
2.02,0.000291,144000,B4
0.213,9.34e-05,439000,B5
0.44,8.18e-05,186000,B6

# Molecular target: T4, murine IL-21R extracellular domain His-Flag fusion protein (murine, UniProt Q9JHX3 20-237)
# T4 construct: Biotinylated in the ELISAs; also called mIL-21R-H/F; murine IL-21R-H/F
# Assay: SPR, Ab captured on anti-human IgG
# Procedure: as §1, §2
Kd [nM],koff [s⁻¹],kon [M⁻¹ s⁻¹],Binder
50.8,0.00508,99900,B7
72,0.0153,212000,B1
49.2,0.00549,112000,B8
15.7,0.00331,211000,B2
64.5,0.00493,76500,B3
16.7,0.00332,199000,B4
68.8,0.0207,301000,B5
44.2,0.00434,98100,B6

# Molecular target: T3, human IL-21R extracellular domain …
# Assay: SPR, Ab captured on anti-human IgG, replicate experiment
# Procedure: as §1, §2
Kd [nM],koff [s⁻¹],kon [M⁻¹ s⁻¹],Binder
0.436,0.000102,233000,B7
4.4,0.00134,304000,B1
0.272,7.42e-05,273000,B2
0.394,9.76e-05,248000,B3
1.51,0.000305,202000,B4
0.213,9.34e-05,–,B5
0.329,7.83e-05,238000,B6

# Molecular target: T5, rat IL-21R expressed on cells (rat)
# T5 construct: whole, on cells
# Assay: cell-based ELISA on CHO cells transiently expressing rat IL-21R; HRP anti-human IgG, A450
# Method in brief: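 Binding to transiently transfected CHO-PA-Dukx surfaces was read after TMB color saturation. Serially diluted antibody conditioned media and HRP conjugate were each applied 1 hr at RT, with PBS containing calcium and magnesium for washes and milk blocking.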
row,EC50 (read off the curve) [nM],Binder
1,~0.4,B8
2,~1,B2
3,~0.7,B3
4,~1,B4
5,~0.8,B5

# Molecular target: T1, human IL-21R expressed on cells
# Assay: cell-based ELISA on CHO cells transiently expressing human IL-21R; HRP anti-human IgG, A450
row,EC50 (read off the curve) [nM],Binder
1,~1,B7
2,~0.6,B1
3,~0.4,B8
4,~1,B2
5,~0.5,B3
6,~0.9,B5
7,~2,B6
